Laboratory results published in patent US20040106569.
Marks after values point to notes of the source that are not given here.

Legend:
[1] = target: myelin basic protein
[2] = target: GST-GSK3 fusion protein (Cell Signaling Technology)

Protein	radioactive in vitro kinase assay, 32P incorporation by autoradiography (FIG. 11B) [1]	non-radioactive in vitro kinase assay (FIG. 11A) [2]	Activity (phosphorylation of MPB) [1]	non-radioactive in vitro kinase assay, phosphorylated substrate detected by Western blot [2]
full length PKNbeta KE588 mutant (protein) MEEGAPRQPGPSQWPPEDEKEVIRRAIQKELKIKEGVENLRRVATDRRHLGHVQQLLRSSNRRLEQLHGELRELHARILLPGPGPGPAEPVASGPRPWAEQLRARHLEALRRQLHVELKVKQGAENMTHTCASGTPKERKLLAAAQQMLRDSQLKVALLRMKISSLEASGSPEPGPELLAEELQHRLHVEAAVAEGAKNVVKLLSSRRTQDRKALAEAQAQLQESSQKLDLLRLALEQLLEQLPPAHPLRSRVTRELRAAVPGYPQPSGTPVKPTALTGTLQVRLLGCEQLLTAVPGRSPAAALASSPSEGWLRTKAKHQRGRGELASEVLAVLKVDNRVVGQTGWGQVAEQSWDQTFVIPLERARELEIGVHWRDWRQLCGVAFLRLEDFLDNACHQLSLSLVPQGLLFAQVTFCDPVIERRPRLQRQERIFSKRRGQDFLRRSQMNLGMAAWGRLVMNLLPPCSSPSTISPPKGCPRTPTTLREASDPATPSNFLPKKTPLGEEMTPPPKPPRLYLPQEPTSEETPRTKRPHMEPRTRRGPSPPASPTRKPPRLQDFRCLAVLGRGHFGKVLLVQFKGTGKYYAIEALKKQEVLSRDEIESLYCEKRILEAVGCTGHPFLLSLLVCFQTSSHARFVTEFVPGGDLMMQIHEDVFPEPQARFYVACVVLGLQFLHEKKIIYRDLKLDNLLLDAQGFLKIADFGLCKEGIGFGDRTSTFCGTPEFLAPEVLTQEAYTQAVDWWALGVLLYEMLVGECPFPGDTEEEVFDCIVNMDAPYPGFLSVQGLEFIQKLLQKCPEKRLGAGEQDAEEIKVQPFFRTTNWQALLARTIQPPFVPTLCGPADLRYFEGEFTGLPPALTPPAPHSLLTARQQAAFRDFDFVSERFLEP	background activity of unspecific kinases (FIG. 11B)	no (FIG. 11A) or background activity of unspecific kinases (FIG. 11B) were detected with the full length KE and full length TA mutatant proteinss	–	–
full length PKNbeta with the TA mutation at amino acid 718 (protein) MEEGAPRQPGPSQWPPEDEKEVIRRAIQKELKIKEGVENLRRVATDRRHLGHVQQLLRSSNRRLEQLHGELRELHARILLPGPGPGPAEPVASGPRPWAEQLRARHLEALRRQLHVELKVKQGAENMTHTCASGTPKERKLLAAAQQMLRDSQLKVALLRMKISSLEASGSPEPGPELLAEELQHRLHVEAAVAEGAKNVVKLLSSRRTQDRKALAEAQAQLQESSQKLDLLRLALEQLLEQLPPAHPLRSRVTRELRAAVPGYPQPSGTPVKPTALTGTLQVRLLGCEQLLTAVPGRSPAAALASSPSEGWLRTKAKHQRGRGELASEVLAVLKVDNRVVGQTGWGQVAEQSWDQTFVIPLERARELEIGVHWRDWRQLCGVAFLRLEDFLDNACHQLSLSLVPQGLLFAQVTFCDPVIERRPRLQRQERIFSKRRGQDFLRRSQMNLGMAAWGRLVMNLLPPCSSPSTISPPKGCPRTPTTLREASDPATPSNFLPKKTPLGEEMTPPPKPPRLYLPQEPTSEETPRTKRPHMEPRTRRGPSPPASPTRKPPRLQDFRCLAVLGRGHFGKVLLVQFKGTGKYYAIKALKKQEVLSRDEIESLYCEKRILEAVGCTGHPFLLSLLVCFQTSSHARFVTEFVPGGDLMMQIHEDVFPEPQARFYVACVVLGLQFLHEKKIIYRDLKLDNLLLDAQGFLKIADFGLCKEGIGFGDRTSAFCGTPEFLAPEVLTQEAYTQAVDWWALGVLLYEMLVGECPFPGDTEEEVFDCIVNMDAPYPGFLSVQGLEFIQKLLQKCPEKRLGAGEQDAEEIKVQPFFRTTNWQALLARTIQPPFVPTLCGPADLRYFEGEFTGLPPALTPPAPHSLLTARQQAAFRDFDFVSERFLEP	background activity of unspecific kinases (FIG. 11B)	no (FIG. 11A) or background activity of unspecific kinases (FIG. 11B) were detected with the full length KE and full length TA mutatant proteinss	–	–
full length wildtype PKNbeta molecule (889 amino acids) (protein) MEEGAPRQPGPSQWPPEDEKEVIRRAIQKELKIKEGVENLRRVATDRRHLGHVQQLLRSSNRRLEQLHGELRELHARILLPGPGPGPAEPVASGPRPWAEQLRARHLEALRRQLHVELKVKQGAENMTHTCASGTPKERKLLAAAQQMLRDSQLKVALLRMKISSLEASGSPEPGPELLAEELQHRLHVEAAVAEGAKNVVKLLSSRRTQDRKALAEAQAQLQESSQKLDLLRLALEQLLEQLPPAHPLRSRVTRELRAAVPGYPQPSGTPVKPTALTGTLQVRLLGCEQLLTAVPGRSPAAALASSPSEGWLRTKAKHQRGRGELASEVLAVLKVDNRVVGQTGWGQVAEQSWDQTFVIPLERARELEIGVHWRDWRQLCGVAFLRLEDFLDNACHQLSLSLVPQGLLFAQVTFCDPVIERRPRLQRQERIFSKRRGQDFLRRSQMNLGMAAWGRLVMNLLPPCSSPSTISPPKGCPRTPTTLREASDPATPSNFLPKKTPLGEEMTPPPKPPRLYLPQEPTSEETPRTKRPHMEPRTRRGPSPPASPTRKPPRLQDFRCLAVLGRGHFGKVLLVQFKGTGKYYAIKALKKQEVLSRDEIESLYCEKRILEAVGCTGHPFLLSLLVCFQTSSHARFVTEFVPGGDLMMQIHEDVFPEPQARFYVACVVLGLQFLHEKKIIYRDLKLDNLLLDAQGFLKIADFGLCKEGIGFGDRTSTFCGTPEFLAPEVLTQEAYTQAVDWWALGVLLYEMLVGECPFPGDTEEEVFDCIVNMDAPYPGFLSVQGLEFIQKLLQKCPEKRLGAGEQDAEEIKVQPFFRTTNWQALLARTIQPPFVPTLCGPADLRYFEGEFTGLPPALTPPAPHSLLTARQQAAFRDFDFVSERFLEP	the full length wildtype protein kinase N beta as well as the kinase domain show activity	–	++*	Only the full length wildtype protein kinase N beta or the kinase domain as defined in example 9 were suitable to phosphorylate the substrate
PKNbeta deltaN comprising amino acids 288-889 (protein) CEQLLTAVPGRSPAAALASSPSEGWLRTKAKHQRGRGELASEVLAVLKVDNRVVGQTGWGQVAEQSWDQTFVIPLERARELEIGVHWRDWRQLCGVAFLRLEDFLDNACHQLSLSLVPQGLLFAQVTFCDPVIERRPRLQRQERIFSKRRGQDFLRRSQMNLGMAAWGRLVMNLLPPCSSPSTISPPKGCPRTPTTLREASDPATPSNFLPKKTPLGEEMTPPPKPPRLYLPQEPTSEETPRTKRPHMEPRTRRGPSPPASPTRKPPRLQDFRCLAVLGRGHFGKVLLVQFKGTGKYYAIKALKKQEVLSRDEIESLYCEKRILEAVGCTGHPFLLSLLVCFQTSSHARFVTEFVPGGDLMMQIHEDVFPEPQARFYVACVVLGLQFLHEKKIIYRDLKLDNLLLDAQGFLKIADFGLCKEGIGFGDRTSTFCGTPEFLAPEVLTQEAYTQAVDWWALGVLLYEMLVGECPFPGDTEEEVFDCIVNMDAPYPGFLSVQGLEFIQKLLQKCPEKRLGAGEQDAEEIKVQPFFRTTNWQALLARTIQPPFVPTLCGPADLRYFEGEFTGLPPALTPPAPHSLLTARQQAAFRDFDFVSERFLEP	–	–	-*	–
